Assay results published in the supplement of paper PMC12764529.
± gives the half width of the 95% confidence interval.

How the values were obtained:
[1] = folding stability dG unfold from chymotrypsin proteolysis; higher = more stable
Summary of the method: (§1)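 Designed mini-proteins (under 80 residues, no cysteine) in a PA-tagged cDNA display construct were digested with trypsin and chymotrypsin. Each protease was used at 11 concentrations (threefold dilutions) plus a no-protease condition, followed by sequencing. K50 was inferred by Bayesian fitting of sequencing counts, and unfolding free energy was derived against a sequence-predicted unfolded-state K50 and a shared folded-state K50, per protease or combined. Only designs with AlphaFold2 dimer inter-PAE above 15 were kept.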

[2] = folding stability dG unfold (combined trypsin and chymotrypsin); higher = more stable
Summary of the method: as §1

[3] = folding stability dG unfold from trypsin proteolysis; higher = more stable
Summary of the method: as §1

Sequence | folding stability dG unfold [1] [kcal/mol] | folding stability dG unfold [2] [kcal/mol] | folding stability dG unfold [3] [kcal/mol]
SMLVLRLPDNRLAVLEYDPETKRLRVLVVDPESGRLTVAEIHPETGEITVDEYTLLPNGEPLPHRFELPLSA [r9_1073_TrMRF] | 2.54 ± 0.048 | 2.73 ± 0.058 | 2.84 ± 0.099
SMLYRVTTVVVRGDRPLVIPVLADSLEAFLEEAREAIPPELREELPPDAVVRVFVEPVPAVVPEPGEPLPSA [r9_111_TrMRF] | 2.03 ± 0.069 | 1.77 ± 0.25 | 1.42 ± 0.057
SMMIKVKITITNEKGEEVEIEIVASPEEIEEALRKLLPPGAKVEIEKIEFYPLEELKPGDVIKITVRVKPSA [r9_803_TrROS_Hall] | 4.47 ± 0.54 | 3.72 ± 0.34 | 2.85 ± 0.11
SMNIHIPILTRPDVDEETIEEEVEALAAELAEKLGLPEGVEVEIEPEPLPEDGVVYHVTLRVGDVEFKGESA [r9_776_TrMRF] | 0.0835 ± 0.4 | 0.0299 ± 0.33 | 0.168 ± 0.14
SMNIVEIEVEEKIIGDTTTITIPIKVNGPAVSEEEIKKIVEDIFKKKGLKINIKIEKDPNSGVITITIIESA [r9_717_JUSTAS] | 2.55 ± 0.12 | 2.33 ± 0.19 | 2.01 ± 0.15
SMNPIGNPITLPDGTTITIIPDLGLILIYDPETGTFIARLILVDENGIPHIFPFIGKIDPETGEIIEIDPSA [r9_122_TrMRF] | 4.13 ± 0.062 | 3.87 ± 0.069 | 3.31 ± 0.11
SMPEILDVREDPDAPGALTFRVKLPDGEATVVIPYDPETGTFTAVRYYPDGEEVREFDSFEDALEAILEDSA [r9_366_TrMRF] | 1.46 ± 0.051 | 1.49 ± 0.053 | 1.45 ± 0.019
SMPGSITVEIEVEEEEDPERGGRRIKKLLIKKVTYKDEKGNSSDEVANEIKNALKEKLEKEGKPAEIELTSA [r9_261_JUSTAS] | 1.11 ± 0.23 | 1.27 ± 0.37 | 1.35 ± 0.081
SMPIEVRVDLERLEDGTLLAVIEIRHPDVQVAEDAAIELARELFPEDVELRIETTPDGRVIAPILLPLPESA [r9_646_TrMRF] | 1.74 ± 0.17 | 2.58 ± 0.22 | 3.14 ± 0.14
SMPKKIIVLEVDEEEIKEFLEKLELGEDTEVKILLSFPDGKTALLEIGPNEIKSIKPIDAIPEKAYIVIASA [r9_849_TrMRF] | 0.755 ± 0.14 | 1.08 ± 0.2 | 1.71 ± 0.14
SMPLPFEATVTVPVRDEETGETYTVTVKVEAVNPAVPRPLPDGSIEYEPIPLETVLEIVEKAAEELAKALSA [r9_698_TrMRF] | 1.55 ± 0.058 | 1.56 ± 0.14 | 1.27 ± 0.074
SMQINVERNPENGTVIIHIPMEDMPPENIREILKDLPPNNKRVTIHMHDPPYMRWLKELAKEKGFPIKITSA [r9_919_TrROS] | 0.453 ± 0.21 | 0.623 ± 0.15 | 0.824 ± 0.098
SMRVVLVRPVPPELKEAELELRLPLPDGSEVEVKAETGEDFVVVTIELDDESAAEAVVEELEKLLEELLGSA [r9_790_TrMRF] | 1.17 ± 0.034 | 1.13 ± 0.053 | 0.926 ± 0.019
SMSEKVEIDPAAIAEALKAGTEYEFDIKVTVTLFDPSNGKKVSTEEKVVKVKLKIPPPSPLPDPKNGYLLSA [r9_396_JUSTAS] | 1.4 ± 0.079 | 1.29 ± 0.2 | 1.11 ± 0.038
SMSEVVEESEFNGEKVITIKVTLPDGTPVTVTITLSPEGEGTVTTVPPSSSTSTTTTVPVSQVDEVLEALSA [r9_91_JUSTAS] | 1.4 ± 0.031 | 1.61 ± 0.074 | 1.95 ± 0.061
SMSPEARALARELAERLRELFPGAEIEIRVEVEVNEDGEVTIRVEIRVRPAPPPEVRVVRDEDGRERRLRSA [r9_82_TrROS_Hall] | 2.04 ± 0.04 | 1.8 ± 0.074 | 1.09 ± 0.1
SMSRPVEVEFELPLEGEGPVRLRATLVVDPESGVVEIPVRARFPEREEDVDLPPELLERLARRVLEELGGSA [r9_1136_TrMRF] | 1.25 ± 0.034 | 1.1 ± 0.034 | 0.744 ± 0.031
SMTIEGMSPREAVRNIIEEFIEMFEANGNPPMPIKIRFPGNGKPIYEFPIQSKEQLLDQIENGVPVSIEFSA [r9_718_TrROS] | -0.498 ± 0.18 | 0.183 ± 0.1 | 0.604 ± 0.027
